{"source": "paper doi:10.1101/2025.10.10.681541", "about": "“Visualizing the mechanism of quinol oxidation and inhibition of a bd-type oxidase using cryo-EM” (bioRxiv, 2025)", "key": {"[1]": {"target": "T1, E. coli cytochrome bd-I subunit CydA (E. coli, UniProt P0ABJ9 1-522)", "T1 construct": "CydA, subunit of E. coli cytochrome bd-I (Ecbd); harbours hemes b558, b595 and d and the Q-loop; Co-expressed and co-purified with CydB, CydX and CydH; never isolated on its own", "T1 sequence": "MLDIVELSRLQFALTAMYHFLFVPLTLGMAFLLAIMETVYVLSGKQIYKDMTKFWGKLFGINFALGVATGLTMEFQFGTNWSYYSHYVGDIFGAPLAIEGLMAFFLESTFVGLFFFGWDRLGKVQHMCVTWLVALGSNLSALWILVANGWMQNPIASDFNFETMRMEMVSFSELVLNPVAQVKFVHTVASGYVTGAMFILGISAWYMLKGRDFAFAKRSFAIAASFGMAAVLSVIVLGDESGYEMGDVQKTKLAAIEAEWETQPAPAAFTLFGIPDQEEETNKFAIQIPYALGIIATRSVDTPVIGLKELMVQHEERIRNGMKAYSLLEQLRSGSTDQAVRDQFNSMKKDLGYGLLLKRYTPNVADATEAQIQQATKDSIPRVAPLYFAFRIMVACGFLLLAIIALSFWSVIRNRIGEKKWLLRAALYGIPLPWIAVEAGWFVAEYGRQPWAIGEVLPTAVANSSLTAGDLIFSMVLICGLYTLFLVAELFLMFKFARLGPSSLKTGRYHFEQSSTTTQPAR", "experiment": "cryo-EM structure; purified Ecbd in LMNG micelles (unbound, Aurachin D bound) or in MSP1D1 PC nanodiscs doped with 5% menaquinone-9; monomeric and dimeric particles on the same grids", "conditions": "both partners purified"}, "[2]": {"target": "the molecule itself", "experiment": "cryo-EM structure; purified Ecbd in LMNG micelles (unbound, Aurachin D bound) or in MSP1D1 PC nanodiscs doped with 5% menaquinone-9; monomeric and dimeric particles on the same grids"}}, "data": [{"binder": "MWYFAWILGTLLACSFGVITALALEHVESGKAGQEDI (natural protein, CydX, single-helix subunit of E. coli cytochrome bd-I (Ecbd))", "note": "[E. coli cytochrome bd-I subunit CydX]", "values": [{"measurement": "binding result", "setting": "[1]", "result": "binds"}, {"measurement": "binding result", "setting": "[2]", "result": "binds"}]}]}
